This note sets out measurements from patent US20230257447A1 (published 2023).

In this assay the target is T1, CMV phosphoprotein pp65 (SEQ 34) peptide on HLA-A*11:01 (human).
T1 peptide: ATVQGQNLK
Briefly: multimer staining.

B1: C45 (TCR, V domains shown)
Valpha: DQQVKQNSPSLSVQEGRISILNCDYTNSMFDYFLWYKKYPAEGPTFLISISSIKDKNEDGRFTVFLNKSAKHLSLHIVPSQPGDSAVYFCAASAWNTGNQFYFGTGTSLTVIP
Vbeta: KAGVTQTPRYLIKTRGQQVTLSCSPISGHRSVSWYQQTPGQGLQFLFEYFSETQRNKGNFPGRFSGRQFSNSRSEMNVSTLELGDSALYLCASSLAGYKQETQYFGPGTRLLVL
Consider B1, for which the binding result is “recognises”.

B2: C44 (TCR, V domains shown)
Valpha: AQTVTQSQPEMSVQEAETVTLSCTYDTSESDYYLFWYKQPPSRQMILVIRQEAYKQQNATENRFSVNFQKAAKSFSLKISDSQLGDAAMYFCAYRAFYTGANSKLTFGKGITLSVRP
Vbeta: DAGVTQSPTHLIKTRGQQVTLRCSPKSGHDTVSWYQQALGQGPQFIFQYYEEEERQRGNFPDRFSGHQFPNYSSELNVNALLLGDSALYLCASSFFRGEGNQPQHFGDGTRLSIL
Take B2: the binding result is on record as “recognises”.
